This note sets out measurements from patent publication US20090286721A1 (published 2009).

Assay [1] concerns the target T1, P-selectin on thrombin-activated human platelets (human, UniProt P16109 42-830).
T1 construct: whole, on cells
T1 sequence (looked up): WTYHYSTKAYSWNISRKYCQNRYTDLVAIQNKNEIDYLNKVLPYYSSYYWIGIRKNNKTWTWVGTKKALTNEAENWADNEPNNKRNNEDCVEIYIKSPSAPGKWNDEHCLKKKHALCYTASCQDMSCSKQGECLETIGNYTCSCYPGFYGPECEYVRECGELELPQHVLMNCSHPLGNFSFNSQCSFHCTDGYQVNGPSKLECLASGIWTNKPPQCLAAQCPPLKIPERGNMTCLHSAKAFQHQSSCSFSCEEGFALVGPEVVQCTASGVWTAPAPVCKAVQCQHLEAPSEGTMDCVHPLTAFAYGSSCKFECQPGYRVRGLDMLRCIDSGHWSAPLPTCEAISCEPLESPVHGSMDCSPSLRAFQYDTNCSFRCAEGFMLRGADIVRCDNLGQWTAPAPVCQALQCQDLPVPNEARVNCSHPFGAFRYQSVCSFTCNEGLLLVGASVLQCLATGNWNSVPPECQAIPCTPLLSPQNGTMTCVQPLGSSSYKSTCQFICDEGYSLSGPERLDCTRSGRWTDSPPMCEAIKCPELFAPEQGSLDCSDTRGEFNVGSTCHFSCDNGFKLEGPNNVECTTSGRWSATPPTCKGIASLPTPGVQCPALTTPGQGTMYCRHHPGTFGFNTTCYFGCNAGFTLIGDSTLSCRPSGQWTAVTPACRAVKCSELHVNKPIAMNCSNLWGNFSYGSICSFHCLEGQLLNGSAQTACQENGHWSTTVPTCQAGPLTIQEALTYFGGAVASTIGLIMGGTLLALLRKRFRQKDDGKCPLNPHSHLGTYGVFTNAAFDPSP
Kind of assay: ELISA on plate-coated thrombin-activated human platelets. On the procedure:
The ability of purified HuSZ51-DSPAalpha1 to bind specifically to human or dog thrombin-activated platelets in vitro was investigated by ELISA. 96-Well plates were coated with a 100 μl solution containing 1×10⁶ thrombin-activated human or dog platelets per well and incubated overnight at 4° C. The coated plates were washed once with washing solution (PBS, pH 7.4 plus 0.05% Tween-20), and then incubated with 200 μl blocking solution (5% milk prepared in PBS) per well at 37° C. for 2 hours. The blocked plates were washed 3 times with washing solution, and then incubated with 100 μl washing solution containing various amounts of HuSZ51-DSPAalpha1, SZ51, or human IgG1 for 1 hour at 37° C. The plates were washed 3 times with washing solution, and then incubated with peroxidase-conjugated protein L (Pierce) for 1 hour at 37° C. The plates were washed 4 times with washing solution, and then incubated with 100 μl of TMB/E substrate (ZYMED) for 5 minutes at room temperature. The perioxidase reactions were stopped by the addition of 100 μl 1 N HCl, and the plates were read for absorbance at 450 nm within 5 minutes.

The target in assay [2] is T2, recombinant human P-selectin (R&D Systems) (human, UniProt P16109 42-771).
T2 construct: extracellular domain; also called recombinant soluble P-selectin; recombinant P-selectin
T2 sequence (looked up): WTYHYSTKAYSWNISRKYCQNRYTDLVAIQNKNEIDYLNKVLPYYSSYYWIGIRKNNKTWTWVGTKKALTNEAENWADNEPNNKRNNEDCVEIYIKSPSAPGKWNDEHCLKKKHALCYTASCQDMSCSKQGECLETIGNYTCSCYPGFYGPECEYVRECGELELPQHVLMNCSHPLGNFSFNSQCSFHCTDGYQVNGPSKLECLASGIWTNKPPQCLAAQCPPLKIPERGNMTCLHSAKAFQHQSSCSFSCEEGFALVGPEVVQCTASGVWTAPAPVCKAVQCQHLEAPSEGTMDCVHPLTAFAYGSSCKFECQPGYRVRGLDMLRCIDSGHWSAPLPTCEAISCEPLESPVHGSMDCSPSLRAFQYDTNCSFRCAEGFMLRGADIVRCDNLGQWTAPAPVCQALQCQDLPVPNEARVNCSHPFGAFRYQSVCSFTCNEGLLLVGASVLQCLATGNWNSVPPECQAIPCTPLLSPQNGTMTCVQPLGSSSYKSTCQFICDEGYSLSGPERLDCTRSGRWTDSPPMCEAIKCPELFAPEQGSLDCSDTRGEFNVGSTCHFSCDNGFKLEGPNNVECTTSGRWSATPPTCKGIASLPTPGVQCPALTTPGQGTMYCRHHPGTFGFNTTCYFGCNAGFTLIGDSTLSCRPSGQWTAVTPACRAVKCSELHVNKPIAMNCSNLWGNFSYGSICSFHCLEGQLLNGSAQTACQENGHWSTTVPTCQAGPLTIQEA
Kind of assay: recombinant soluble P-selectin (0-40 ng) after SDS-PAGE on nitrocellulose, detection with HRP goat anti-human Fc. How it is done: 1. Binding of HuSZ51-DSPAalpha1 to P-selectin on a nitrocellulose membrane. The indicated amounts of recombinant soluble P-selectin (R&D systems), 0, 5, 10, 20, or 40 ng, along with 10 ng of human IgG1, were separated on SDS-PAGE gels and then transferred onto nitrocellulose membranes. One membrane was incubated with HuSZ51, and the second was incubated with HuSZ51-DSPAalpha1. After washing, bound HuSZ51 or HuSZ51-DSPAalpha1 was detected by HRP-conjugated goat anti-human Fc. The intensity of human IgG1 lane, which is also detected by HRP-conjugated goat anti-human Fc was used as a normalization control.

B1: SZ51, murine anti-P-selectin monoclonal antibody (antibody, V domains shown)
VH: QVQLLESGPELKKPGETVKISCKASGYTFTNYGMNWVKQAPGKGLKWMGWINTYTGEPIYADDFKGRFAFSLETSASTAHLQINSLKNEDMATYFCARGRGGNAMDYWGQGTSVTVSS
VL: ELQMTQSPSSLSASVGDRVTISCSASQDISNYLNWYQQKPDGPVKLLIYYTTSNLHSGVPSRFSGSGSGTDYSLTISNLEPEDIATYYCQQYNKVPWTFGGGTKLEIKR
notes: Variable region DNA in GenBank gi:4099282 (heavy) and gi:4099284 (light); also called parental monoclonal antibody SZ51; anti-P-selectin mouse monoclonal antibody
As to B1, in assay [1], the binding result is reported as “binds”.

B2: HuSZ51, chimeric mouse-human anti-P-selectin monoclonal antibody (antibody, human IgG1, V domains shown)
VH: QVQLLESGPELKKPGETVKISCKASGYTFTNYGMNWVKQAPGKGLKWMGWINTYTGEPIYADDFKGRFAFSLETSASTAHLQINSLKNEDMATYFCARGRGGNAMDYWGQGTSVTVSS
VL: ELQMTQSPSSLSASVGDRVTISCSASQDISNYLNWYQQKPDGPVKLLIYYTTSNLHSGVPSRFSGSGSGTDYSLTISNLEPEDIATYYCQQYNKVPWTFGGGTKLEIKR
For the molecule B2, in assay [2], the binding result is on record as “binds”.
